Reference: patent US20040258695A1, “Transferrin binding peptides and uses thereof” (priority 2003, published 2004)

What was measured:
[1] = test system: TbpB N-lobe from M. catarrhalis 4223 (Mbp fusion truncations); test: hTf C-lobe overlapping peptide library probed with HRP-labeled TbpB N-lobe truncations (chemiluminescence); format: binding, Moraxella catarrhalis; settings: for Binding By Truncations, Segments Included 1: TbpB N-lobe segment 1; for Binding By Truncations, Segments Included 1-2: TbpB N-lobe segments 1-2
From the text: (§1) Generation of the overlapping peptide libraries representing human transferrin or the TbpB N-lobe regions from different bacteria was by the ‘SPOTSCAN’ method (Genosys Biotechnologies) (13). Essentially the library consisted of linear peptides 15 amino acids in length that were immobilized onto a cellulose membrane using 9-flurorenylmethoxycarbonyl (Fmoc) amino acid-based synthesis. One membrane was used to generate a library of the C-lobe of hTf consisting of ninety-six 15 amino acid peptides with an 11 amino acid overlap. The overlapping hTf peptide represented amino acids 285 to 679 of the intact hTf protein (accession # NP_001054). The first peptide library representing TbpB N-lobe from M. catarrhalis 4223 (accession #AAC34277) consisted of thirty-two 15 amino acid peptides with a 4 amino acid overlap and included N-lobe amino acids 12-421. The amino acid numbers refer to the amino acids in the predicted mature, processed protein (i.e. the N-terminal cysteine is amino acid 1). The second peptide library representing M. catarrhalis 4223 TbpB N-lobe peptides included amino acids 27-421 but with an 11 amino acid overlap.
TbpB truncations were generated by PCR-based cloning into the pMal expression system (New England BioLabs) as described previously (33). Essentially, amplified tbpB gene segments were subcloned into the pMal-c2 expression vector to generate an in frame fusion with the malE gene. Intact Moraxella catarrhalis 4223 TbpB consisted of amino acids 3-680 where 1 represents the N-terminal cysteine of the mature processed protein. Amino acids 1 and 2 from the mature protein were removed to ease cloning and subsequent expression. The N-terminal half of this gene consisted of amino acids 3 to 421. The truncated TbpB proteins were expressed as maltose binding protein fusions in E. coli ER2507 or ER2508 (for segments 1 and 1-2) and purified by amylose affinity chromatography.
(§2) Two different methods for labeling proteins for library screening were used. Iron loaded human Tf (Sigma) was labeled by chemical cross-linking (using 3-maleimidobenzoic acid-N-hydroxysuccinimide ester) to a beta-galactosidase (β-gal) reporter enzyme as described elsewhere (18). This was used as a probe for calorimetric detection on the composite peptide library. The second method involved conjugating the truncations of the N-lobe of TbpB from M. catarrhalis 4223 to horseradish peroxidase (HRP). HRP conjugated proteins can be detected by chemiluminescence, providing a much more sensitive screen. The truncations were conjugated to HRP using the Linx HRP Rapid Protein Conjugation Kit (Invitrogen). These labeled fusion proteins were then used as a probe for chemiluminescent detection.
For increased sensitivity, the TbpB N-lobe truncations from M. catarrhalis were conjugated to HRP for production and detection of chemiluminescent product. The membrane was rinsed with methanol and washed with 3 changes (5 minutes each) of TBS (0.137 M NaCl, 2.68 mM KCl, 50.4 mM Tris-Base, pH=8.0) on a rocking platform. The membrane was blocked by rocking at room temperature in blocking solution consisting of 20 ml of 0.5% Skim milk powder (BioRad) in TBS for 2.5 hours. The membrane was washed with T-TBS 3 times before being incubated with one of the HRP conjugated truncations diluted 1:1000 in skim milk blocking solution for 4 hours at room temperature. The membrane was then washed again 3 times with T-TBS, drained and incubated with 10 ml of Lumiglo mixture (Kirkegaard and Perry Laboratories) for 5 minutes. It was then exposed to X-omat Blue XB-1 X-Ray film (Kodak) for at least 30 seconds before developing. Positive peptides show up as dark spots on a light background.
To plan the truncation experiments, the N-lobe of M. catarrhalis was divided into seven segments with the identified binding peptides at their junctions. […]

human transferrin (hTf) = biological target: T1, human transferrin (hTf) (Homo sapiens, UniProt P02787); test: First M. catarrhalis TbpB N-lobe overlapping peptide library screened with β-galactosidase conjugated hTf (colorimetric); format: binding; settings: 15 mer peptides with 4-amino acid overlap
T1 construct: purchased Sigma
From the text: as §1, §2
Binding experiments of hTf to the first peptide library was by the calorimetric method (Genosys Biotechnologies). Essentially hTf in blocking solution (10% Blocking buffer (Genosys Biotechnologies), 50 mg/ml sucrose, T-TBS, (0.137 M NaCl, 2.68 mM KCl, 50.4 mM Tris-Base, 0.05% Tween-20, pH8.0) was incubated with the membrane containing the peptide library for 4 hours at room temperature. The membrane was then washed sequentially in T-TBS and PBS before detection of bound beta-galactosidase using 5-bromo-4-chloro-3-indoyl-β-D-galactopyranoside (X-gal). Positive binding was determined by the development of a blue spot.
Initially, an overlapping peptide library representing the TbpB N-lobe of M. catarrhalis was prepared and probed for binding to labeled hTf. This library was comprised of thirty-two 15 mer peptides with a 4-amino acid overlap representing amino acids 12-421 of the mature M. catarrhalis TbpB. The library was screened for binding to β-galactosidase (β-gal) conjugated hTf (β-gal-hTf ) and a number of positive-binding peptides were detected with varying intensity of colored product.

[2] = biological target: T2, human transferrin (hTf), iron loaded (human, UniProt P02787 20-698); test: TbpB overlapping peptide library probed with labelled hTf as in Example 1
T2 construct: Used as a labelled probe (beta-gal conjugate for library 1, HRP conjugate for library 2 and the solid-phase assay); also called β-gal-hTf; HRP conjugated hTf

β-galactosidase alone = biological target: T3, β-galactosidase alone (UniProt P00722 2-1024 = β-galactosidase); test: SPOT peptide library 1 probed with beta-galactosidase alone, colorimetric
T3 construct: Negative control probe for library 1; also called beta-galactosidase

[3] = biological target: T2, human transferrin (hTf), iron loaded; test: SPOT peptide library 1 of TbpB N-lobe probed with beta-gal-hTf, colorimetric

T1 sequence (P02787 20-698): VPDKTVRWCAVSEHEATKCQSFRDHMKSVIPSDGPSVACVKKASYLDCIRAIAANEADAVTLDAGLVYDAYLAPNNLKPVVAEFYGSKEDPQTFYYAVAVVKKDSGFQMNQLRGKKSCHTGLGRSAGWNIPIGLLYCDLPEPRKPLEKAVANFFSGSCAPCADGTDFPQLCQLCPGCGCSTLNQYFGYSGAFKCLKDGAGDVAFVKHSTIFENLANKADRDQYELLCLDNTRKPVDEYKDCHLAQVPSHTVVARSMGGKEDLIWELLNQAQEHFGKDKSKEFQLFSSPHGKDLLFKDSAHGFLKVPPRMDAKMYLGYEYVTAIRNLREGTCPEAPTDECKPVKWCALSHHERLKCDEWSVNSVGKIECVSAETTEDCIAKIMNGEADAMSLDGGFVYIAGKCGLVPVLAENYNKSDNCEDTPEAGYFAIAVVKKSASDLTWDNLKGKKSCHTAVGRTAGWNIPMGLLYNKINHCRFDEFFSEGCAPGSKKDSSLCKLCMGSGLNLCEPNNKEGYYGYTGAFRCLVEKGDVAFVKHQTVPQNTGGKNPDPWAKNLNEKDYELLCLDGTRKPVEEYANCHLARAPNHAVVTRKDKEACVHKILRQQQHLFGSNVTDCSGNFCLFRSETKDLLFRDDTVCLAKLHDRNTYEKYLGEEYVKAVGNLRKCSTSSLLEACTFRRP
T2 sequence (P02787 20-698 limits assumed): as the sequence (P02787 20-698) above
T3 sequence (P00722 2-1024 limits assumed): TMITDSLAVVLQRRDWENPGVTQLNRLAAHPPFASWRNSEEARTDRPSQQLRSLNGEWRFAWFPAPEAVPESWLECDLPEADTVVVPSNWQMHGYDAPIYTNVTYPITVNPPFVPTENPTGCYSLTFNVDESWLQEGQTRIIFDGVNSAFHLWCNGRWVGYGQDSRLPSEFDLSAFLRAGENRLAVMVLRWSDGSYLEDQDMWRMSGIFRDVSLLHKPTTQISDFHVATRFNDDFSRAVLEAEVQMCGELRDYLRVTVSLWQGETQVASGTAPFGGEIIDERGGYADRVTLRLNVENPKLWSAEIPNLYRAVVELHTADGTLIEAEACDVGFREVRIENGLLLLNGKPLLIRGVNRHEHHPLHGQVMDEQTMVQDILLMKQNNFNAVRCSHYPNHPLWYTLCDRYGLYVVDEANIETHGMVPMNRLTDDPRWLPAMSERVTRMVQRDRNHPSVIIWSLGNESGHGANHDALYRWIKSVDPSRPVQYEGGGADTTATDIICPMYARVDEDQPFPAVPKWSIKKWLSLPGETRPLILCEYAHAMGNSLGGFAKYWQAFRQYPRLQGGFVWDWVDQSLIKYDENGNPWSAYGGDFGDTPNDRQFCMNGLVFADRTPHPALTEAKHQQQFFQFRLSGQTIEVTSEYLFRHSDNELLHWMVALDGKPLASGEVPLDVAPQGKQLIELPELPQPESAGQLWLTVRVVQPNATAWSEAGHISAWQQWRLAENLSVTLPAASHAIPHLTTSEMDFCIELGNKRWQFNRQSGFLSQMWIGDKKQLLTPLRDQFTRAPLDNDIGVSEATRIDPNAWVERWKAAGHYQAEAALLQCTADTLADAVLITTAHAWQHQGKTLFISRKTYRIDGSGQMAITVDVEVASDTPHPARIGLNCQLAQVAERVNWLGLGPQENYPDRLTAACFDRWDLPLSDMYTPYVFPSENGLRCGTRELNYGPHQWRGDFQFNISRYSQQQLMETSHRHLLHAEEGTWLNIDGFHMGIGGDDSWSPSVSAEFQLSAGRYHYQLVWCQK

tdcsgnfclfrsetk [Peptide 46]
Binding By Truncations, Segments Included 1 ([1]; listed as 19 (brown)): loss of binding

fsnlqdrhkgnvtkt (FSNLQDRHKGNVTKT; M. catarrhalis) [Peptide 90]
binding to β-gal-hTf, intensity of colored product (human transferrin (hTf)): strongly positive

mgygmalskinlhnr (MGYGMALSKINLHNR; M. catarrhalis) [Peptide 65]
binding to β-gal-hTf, intensity of colored product (human transferrin (hTf)): moderately positive

agwyygasskdeynr (AGWYYGASSKDEYNR; M. catarrhalis) [Peptide 85]
binding to β-gal-hTf, intensity of colored product (human transferrin (hTf)): weakly positive

danihgnrfrgsata (DANIHGNRFRGSATA; M. catarrhalis) [Peptide 92]
binding to β-gal-hTf, intensity of colored product (human transferrin (hTf)): strongly positive

kylgeeyvkavgnlr (KYLGEEYVKAVGNLR; listed as Homo sapiens) [Peptide 47, hTf C-lobe library peptide, tail (Cyan)]
Binding By Truncations, Segments Included 1-6 ([1]; TbpB N-lobe segments 1-6, listed as 20 (Cyan)): bound all of the peptides except the one

nipmgllynkinhcr (NIPMGLLYNKINHCR; listed as Homo sapiens) [Peptide 41, hTf C-lobe library peptide, domain 2 (Blue)]
Binding By Truncations, Segments Included 1-4 ([1]; TbpB N-lobe segments 1-4, listed as 13 (Blue)): lost reactivity

gsnvtdcsgnfclfr [Peptide 45]
Binding By Truncations, Segments Included 1 ([1]; listed as 18 (brown)): loss of binding

lcmgsglnlcepnnk (LCMGSGLNLCEPNNK; listed as Homo sapiens) [Peptide 42, hTf C-lobe library peptide, domain 2 (Red)]
Binding By Truncations, Segments Included 1-2 ([1]; listed as 14 (red)): lost reactivity

chlarapnhavvtrk [Peptide 44]
Binding By Truncations, Segments Included 1-5 ([1]; TbpB N-lobe segments 1-5, listed as 16 (yellow)): lost reactivity

gpvggvfyngtttak (GPVGGVFYNGTTTAK; M. catarrhalis) [Peptide 80]
binding to β-gal-hTf, intensity of colored product (human transferrin (hTf)): strongly positive

kksasdltwdnlkgk (KKSASDLTWDNLKGK; listed as Homo sapiens) [Peptide 40, hTf C-lobe library peptide, domain 2 (Green)]
Binding By Truncations, Segments Included 1-3 ([1]; TbpB N-lobe segments 1-3, listed as 12 (green)): lost reactivity

fmtdvanrrnrfsev (FMTDVANRRNRFSEV; M. catarrhalis) [Peptide 83]
binding to β-gal-hTf, intensity of colored product (human transferrin (hTf)): moderately positive

gyygytgafrclvek (GYYGYTGAFRCLVEK; listed as Homo sapiens) [Peptide 43, hTf C-lobe library peptide, domain 2 (Red)]
Binding By Truncations, Segments Included 1-2 ([1]; listed as 15 (red)): lost reactivity

FYKHAASEKDFSNKK (library peptide) [N. meningitidis TbpB peptide FYKHAASEKDFSNKK]
binding result [2]: binds

B1: M. catarrhalis TbpB N-lobe peptide fsnlqdrhkgnvtkt (peptide)
peptide: FSNLQDRHKGNVTKT
notes: SPOT peptide immobilised on cellulose membrane; also called spot #90
binding result (β-galactosidase alone): no binding | binding result [3]: binds

B2: M. catarrhalis TbpB N-lobe peptide agwyygasskdeynr (peptide)
peptide: AGWYYGASSKDEYNR
notes: SPOT peptide immobilised on cellulose membrane; also called spot #85
binding result (β-galactosidase alone): no binding | binding result [3]: binds

PSRQLPASGKVIYKG (library peptide) [N. meningitidis TbpB peptide PSRQLPASGKVIYKG]
binding result [2]: binds

B3: M. catarrhalis TbpB N-lobe peptide gpvggvfyngtttak (peptide)
peptide: GPVGGVFYNGTTTAK
notes: SPOT peptide immobilised on cellulose membrane; also called spot #80
binding result (β-galactosidase alone): no binding | binding result [3]: binds

B4: M. catarrhalis TbpB N-lobe peptide danihgnrfrgsata (peptide)
peptide: DANIHGNRFRGSATA
notes: SPOT peptide immobilised on cellulose membrane; also called spot #92
binding result (β-galactosidase alone): no binding | binding result [3]: binds

B5: M. catarrhalis TbpB N-lobe peptide mgygmalskinlhnr (peptide)
peptide: MGYGMALSKINLHNR
notes: SPOT peptide immobilised on cellulose membrane; also called spot #65
binding result (β-galactosidase alone): no binding | binding result [3]: binds

VIYKGVWHFVTDTKK (library peptide) [N. meningitidis TbpB peptide VIYKGVWHFVTDTKK]
binding result [2]: binds

B6: M. catarrhalis TbpB N-lobe peptide fmtdvanrrnrfsev (peptide)
peptide: FMTDVANRRNRFSEV
notes: SPOT peptide immobilised on cellulose membrane; also called spot #83
binding result (β-galactosidase alone): no binding | binding result [3]: binds
